System: MS2 coat protein
Assay: apparent KD of MS2 coat protein; designed switch direction (-1 OFF switch, 1 ON switch): -1; higher = weaker reporter binding
Outline: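 Transcription of designed RNA switches on Illumina chips was done by stalled E. coli RNA polymerase. SNAP-549-labelled MS2 coat protein was then titrated in doubling steps from 0.7 or 1.5 nM to 3 µM, with steps of 0.8–1.5 h at the lowest and 10–20 min at the highest concentration. The per-design median over clusters of curve-fitted normalised fluorescence is reported as apparent KD.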

[1] = Eterna round: R95, input ligand: FMN 200 uM
[2] = Eterna round: R95, input ligand: microRNA oligo, concentration not stated
[3] = Eterna round: R95, input ligand: none
[4] = input ligand: microRNA oligo, concentration not stated

| Sequence | apparent KD of MS2 coat protein (input ligand: FMN 200 uM) [nM] | apparent KD of MS2 coat protein (input ligand: none) [nM] | apparent KD of MS2 coat protein [1] [nM] | apparent KD of MS2 coat protein [2] [nM] | apparent KD of MS2 coat protein [3] [nM] | apparent KD of MS2 coat protein [4] [nM] |
| --- | --- | --- | --- | --- | --- | --- |
| AAUAUCACAGGAUAUCCGGAUUUGUACAUGAGGAUCACCCAUGUGGUGACGUAGAACUCCGGAGAAGGGUGUCCAG [Eternabot (L2) Solution 89] (Eterna round: R97, puzzle: Exclusion 5) | 29 | 161 |  |  |  |  |
| GCGACUGGAGGAUAUACAUGAGGAUCACCCAUGUGAUCUAAAAGGGUCUUAUGCCGGUGUAGAAGGCCGAGCAG [Eternabot (L2) Solution 84] (Eterna round: R97, puzzle: Exclusion 3) | 26.7 | 27.3 |  |  |  |  |
| UAUCCGACAGGAUAUACAUGAGGAUCACCCAUGUACCCACUGUAUGUAACCUCAAACUGUAGAAGGGUUGAUAU [Eternabot (L1) Solution 18] (Eterna round: R97, puzzle: Exclusion 3) | 21.2 | 28.6 |  |  |  |  |
| GAGAAACAUGAGGAUCACCCAUGUGAGGAUAUGAAAAAGAAAAGAAAAGAAAGAAGAAUCAGAAGGCACAAAGA [salish99-ex1_r3_084] (puzzle: Exclusion 1) |  |  | 28.1 | 27.9 | 38.9 |  |
| GCACUGACAGGAUAUACAUGAGGAUCACCCAUGUGACCCUUAUAGUACUCGCGUACUAGUAGAAGGGUCUGUGC [Omei Ex3 Model Bachelor's Dilema v33] (Eterna round: R97, puzzle: Exclusion 3) | 324 | 59.4 |  |  |  |  |
| UCACCGCAAGGAUAUACUUGCGGUGAUGUUCGAAAUCUUCUACUUGAGGAUCACCCAAGUAGAAGGUGCGGUGA [jl-ex2.4.66 ViennaUCT mod] (Eterna round: R97, puzzle: Exclusion 2) | 14.3 | 12.8 |  |  |  |  |
| AGGUCCUUCUGGAGACAUGAGGAUCACCCAUGUCGAGUCAGCGAGGAUAUCGGUUAAUAAUGUGACGAGAAGGCGCGGACCGAU [Ex NG3 #55] (Eterna round: R96, puzzle: Exclusion NG 3) | 45.1 | 13 |  |  |  | 9.82 |
| UAAGAGUAUGUUAGGAUAUGCUGGUCCUUGGAUCAGCAGAAGGAACAUGAGGAUCACCCAUGUAGAAUCUUUUA [Mod of JL 17 - Jieux - Brourd's mod of Exclusion 4] (Eterna round: R97, puzzle: Brourd's mod of Exclusion 4) | 74.8 | 21.3 |  |  |  |  |
| GGUAAGCUAGGAUAUGCUUUGGGAAAGCAUUCCUUCGAUAAACUUGAGGAUCACCCAAGUAGAAGGAGCUUACU [salish99_ex2_r4_014] (Eterna round: R97, puzzle: Exclusion 2) | 19.2 | 14.4 |  |  |  |  |
| UCGUUGUAAAUCAGGUGAUGUCUGUUAGGAUGGACUUUGACAUGAGGAUCACCCAUGUUGCUUUUUGCCCGUCUUAA [JR_SV3TOV2_Sub045] (puzzle: Sensor v3, turn-off variant 2) |  |  | 33.6 | 68.5 | 38.4 |  |
| CUCGAGUCAGGAUAUGUUCCGCAUGGCAACAUGCUAUAAGAAUAGAAGGGACAUGAGGAUCACCCAUGUUAACA [Eternabot (Original) Solution 12] (Eterna round: R97, puzzle: Exclusion 4) | 162 | 44.7 |  |  |  |  |
| CUGUUACAUGAGGAUCACCCAUGUGAGGAUAUGGUUCGGUACUGUCCUGUCGCGUACUCCAGAAGGCACGUGUU [1st #36] (Eterna round: R97, puzzle: Exclusion 1) | 46.5 | 36.5 |  |  |  |  |
| GACAUGAGGAUCACCCAUGUAACCUCAUGUAGGAAGGAGAGUAAGGAUAUACAUGAAGGAAUGAAGUAGAAGGUGCAUAGAGAG [Default title] (Eterna round: R96, puzzle: Exclusion NG 3) | 605 | 586 |  |  |  | 377 |
| CCCAGAUAGGAAGGAUAUUGUACAUGAGGAUCACCCAUGUAAUAAAUGAGGAUCACGGAUGUAGACAAGAAGGUCCGGAUAAGC [Ostracism 6 - Jieux - Exclusion NG 2] (Eterna round: R96, puzzle: Exclusion NG 2) | 57.5 | 39.5 |  |  |  | 29.3 |
| AAAAUUGGUGAGGAUAUGCAGAUGCGCAAUGUCGCAGAAGGCACCACAUGAGGAUCACCCAUGUGUCCUCUAAA [EX6 A.19] (Eterna round: R97, puzzle: Exclusion 6) | 34 | 19.8 |  |  |  |  |
| AGAGUGUGAGGAUAUAUGGUGAAGAUGAAGAAAGAGAAGGAGUAGAAGGUACAUGAGGAUCACCCAUGUUGAGG [JR_Exclu4_Sub071] (puzzle: Exclusion 4) |  |  | 44.8 | 47.8 | 45.5 |  |

From the supplement of paper PMC9170038
